Source: publication doi:10.1101/812115
Like-named read-outs stand apart in the source and are kept apart here.

What was measured:
[1] = target: TDP-43 C-terminal domain (TDP-43CTD) (267-414) (UniProt Q13148); assay: co-sedimentation
[2] = target: TDP-43 C-terminal domain (TDP-43CTD) (267-414) (UniProt Q13148); assay: co-sedimentation; remark: listed apart in the source

Chain of UniProt Q13148 (Q13148 267-414): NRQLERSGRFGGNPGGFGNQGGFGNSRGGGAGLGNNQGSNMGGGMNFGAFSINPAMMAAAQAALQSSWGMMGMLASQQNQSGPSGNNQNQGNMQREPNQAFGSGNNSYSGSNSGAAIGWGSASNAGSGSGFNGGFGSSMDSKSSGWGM

“GRN-5 (granulin-5, oxidized) (domain or fragment)” gave a stoichiometry N (GRN per TDP-43CTD) [1] of 0.75 and a stoichiometry N (GRN per TDP-43CTD) [2] of 0.73.

Substance “rGRN-5 (granulin-5, fully reduced) (domain or fragment)” has a stoichiometry N (GRN per TDP-43CTD) [1] of 1.1.
